Source: patent US20240076371A1, “COMPOSITIONS AND METHODS FOR TREATING OSTEOARTHRITIS, RHEUMATOID ARTHRITIS, AND JOINT AND TENDON DISORDERS” (BOARD OF REGENTS, THE UNIVERSITY OF TEXAS SYSTEM, priority 2021, published 2024)
Read-outs that look alike come from different tables or passages of the source.

Legend:
[1] = test system: post-traumatic OA model (DMM) in male C57BL/6 mice; assay: DMM OA model: open field test; format: in vivo, mouse
Method: (§1) Destabilization of the medial meniscus (DMM) surgery was performed on the right knee joint of mice (Glasson S S, et al. Osteoarthritis and cartilage. 2007; 15(9):1061-9). Briefly, a 3 mm longitudinal incision over the distal patella to proximal tibial plateau was made. The joint capsule immediately medial to the patellar tendon was incised with a #15 blade and the joint capsule opened with micro-iris scissors. Blunt dissection of the fat pad over the intercondylar area was then performed to expose the intercondylar region, providing visualization of the meniscotibial ligament of the medial meniscus. Mild hemorrhage from the fat pad upon blunt dissection was controlled by pressure from absorption spears. Sectioning of medial meniscotibial ligament with micro-surgical knife, with the blade directed proximo-laterally, gave destabilization of the medial meniscus (DMM). Sham surgery was performed with the ligament visualized but not transected.
Spontaneous locomotor activity was analyzed using the open-field test. Mice were placed into the center of a chamber 25×25×25 cm to allow free exploration. The experiments were performed for 10 minutes. Total travel distance, and immobility time were measured by computerized analysis. Mice behavior was recorded, and videos were analyzed by use of ANY-maze behavior tracking software (Stoelting Co., Wood Dale, IL, USA).

[2] = test system: post-traumatic OA model (DMM) in male C57BL/6 mice; format: in vivo, mouse
Method: Materials and Methods. Animals and surgery model. The mice used were of C57BL/6 background. The mice were housed in a temperature-controlled room with a light/dark cycle of 12 hours under specific pathogen-free conditions. Food and water were provided ad libitum. Destabilization of the medial meniscus (DMM) surgery was performed on the right knee joint of mice (Glasson S S, et al. Osteoarthritis and cartilage. 2007; 15(9):1061-9). Briefly, a 3 mm longitudinal incision over the distal patella to proximal tibial plateau was made. The joint capsule immediately medial to the patellar tendon was incised with a #15 blade and the joint capsule opened with micro-iris scissors. Blunt dissection of the fat pad over the intercondylar area was then performed to expose the intercondylar region, providing visualization of the meniscotibial ligament of the medial meniscus. Mild hemorrhage from the fat pad upon blunt dissection was controlled by pressure from absorption spears. Sectioning of medial meniscotibial ligament with micro-surgical knife, with the blade directed proximo-laterally, gave destabilization of the medial meniscus (DMM). Sham surgery was performed with the ligament visualized but not transected. Histology. At 8 weeks after the induction of osteoarthritis (OA), the femur and tibia bones isolated from DMM and sham operated mice were fixed in 4% paraformaldehyde for 2 days prior to decalcification with 10% EDTA (pH 7.5) for 3 weeks. The samples were embedded in paraffin, and 5-μm-thick sections were collected on glass slides. Sections were deparaffinized in xylene, followed by a graded series of alcohol washes. To determine the extent of cartilage deterioration, sections were stained with Safranin O/Fast Green. OARSI scoring was performed to evaluate knee joint articular cartilage destruction (Glasson S S, et al. Osteoarthritis and cartilage. 2010; 18 Suppl 3:S17-23). Specifically, both medial femoral condyle and medial tibial plateau were analyzed through three-level sections of the joints and the severity of OA is expressed as the averaged and summed scores for the entire joint. Results. Inhibition of Cx43 hemichannel ameliorates histopathological changes of OA. To investigate the function of Cx43 hemichannel in OA progression, post-traumatic OA model was induced in male C57BL/6 mice by surgically destabilization of the medial meniscus (DMM). The anti-Cx43 hemichannel blocking antibody (M1 antibody) or saline was administered by intraperitoneal injection twice at 30 minutes and four weeks post-surgery (FIG. 1A). Histological staining of Safranin O/Fast Green was utilized to visualize the severity of articular cartilage damage, which was determined using the Osteoarthritis Research Society International (OARSI) scoring system (Glasson S S, et al. Osteoarthritis and cartilage. 2010; 18 Suppl 3:S17-23) by two blinded observers (FIGS. 1B-D). […] Moreover, synovium hyperplasia was quantified by the synovitis score ([…], et al. Pathology, research and practice. 2002; 198(5):317-25; and Huesa C, et al. Annals of the rheumatic diseases. 2016; 75(11):1989-97).

[3] = test system: post-traumatic OA model (DMM) in male C57BL/6 mice; assay: DMM OA model: micro-computed tomography of tibia subchondral bone; format: in vivo, mouse; settings: eight weeks post-surgery, vs saline-treated DMM mice
Method: as §1
Micro-computed tomography. Following behavioral tests, mice were sacrificed and hindlimbs were dissected immediately and fixed in 4% paraformaldehyde. The structural properties of subchondral bone were evaluated using a 3D reconstruction of μCT imaging system (Brüker SkyScan 1173; Brüker microCT, Kontich, Belgium). Samples were scanned in saline with the following settings: 60 kV, […] beam intensity, 0.5 mm aluminum filter, 0.7° rotation step, 4-frame averaging, 1090 ms integration time, 1024×1024 pixel matrix, and a 10 μm isotropic voxel dimension. After scanning, noise was removed from the images by eliminating disconnected objects smaller than 4 pixels in size. Morphometric analysis was performed on 50 slices extending proximally, beginning with the first slice in which the tibia condyles had fully merged. The subchondral bone was segmented from the cortical shell manually on key slices using a contouring tool, and the contours were morphed automatically to segment the trabecular bone on all slices. The morphometry was reconstructed and analyzed. A grayscale value of 95 in a set of 8-bit slices was set as the threshold and was applied to the specimens after comparing grayscale and binarized images in both groups. After thresholding, the BV/TV (%), Tb.Th (mm), Tb.Sp (mm), and Tb.N (mm^−1) were quantified.

[4] = test system: post-traumatic OA model (DMM) in male C57BL/6 mice; assay: DMM OA model: synovitis score; format: in vivo, mouse; settings: vs saline
Method: as §1
The degree of synovitis is determined considering synovial membrane thickening and synovial hyperplasia and scored on a scale of 0-3 (0, no synovitis; 1, mild synovitis; 2, moderate synovitis; and 3, severe synovitis) (Krenn V, et al. Pathology, research and practice. 2002; 198(5):317-25; and Huesa C, et al. Annals of the rheumatic diseases. 2016; 75(11):1989-97. Blinded histomorphometric assessment was performed.

[5] = molecular target: T1, Cx43 hemichannels (HCs) in primary mouse chondrocytes (Mus musculus, UniProt P23242); assay: Ethidium bromide dye uptake assay in primary mouse chondrocytes; format: cell-based
T1 construct: In primary mouse chondrocytes, ethidium bromide dye uptake assay; endogenous in cells; host or cells: primary mouse chondrocytes

[6] = 4 weeks after DMM, vs saline group
[7] = single i.p. injection, eight weeks after DMM, vs saline

T1 sequence (P23242 whole entry): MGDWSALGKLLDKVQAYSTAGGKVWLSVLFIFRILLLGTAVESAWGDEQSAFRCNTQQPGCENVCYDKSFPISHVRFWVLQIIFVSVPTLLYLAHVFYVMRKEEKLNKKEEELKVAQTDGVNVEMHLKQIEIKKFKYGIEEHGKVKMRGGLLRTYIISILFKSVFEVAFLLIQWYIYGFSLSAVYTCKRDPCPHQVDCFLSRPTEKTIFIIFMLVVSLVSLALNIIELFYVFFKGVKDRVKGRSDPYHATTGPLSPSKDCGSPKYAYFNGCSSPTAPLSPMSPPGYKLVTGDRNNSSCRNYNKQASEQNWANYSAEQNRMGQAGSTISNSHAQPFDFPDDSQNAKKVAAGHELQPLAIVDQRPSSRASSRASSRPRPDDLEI

B1: M1 antibody: antibody with variable heavy chain SEQ ID NO: 58 and variable light chain SEQ ID NO: 60; inhibits or blocks opening of Cx43 hemichannel (antibody, V domains shown)
VH: EVQLQQPGAELVKPGASVKLSCKASGYTFTSYYMYWVKQRPGQGLEWIGGINPSNGGTNFNEKFKNKATLTVDKSSSTAYMQLSSLTSEDSAVYYCTREGNPYYTMNYWGQGTSVTVSS
VL: DIVMTQSPSSLSVSAGEKVTMSCKSSQSLLNSGNQKTYLAWYQQKPGQPPKLLIYGASTRESGVPDRFTGSGSGTDFTLTISSVQAEDLAVYYCQNDHSYPFTFGSGTKLEIK
- distance moved (open field) [1, 6]: trend of increased distance moved
- immobility time (open field) [1, 6]: decreased immobility time
- pain responses: reductions in distance traveled and elevations in immobility time (open field) ([1]; 8 weeks after DMM, i.p. twice): suppressed these pain responses
- distance traveled and immobility time in sham mice, saline vs antibody ([1]; sham mice at 8 weeks): No difference
- distance traveled (open field) [1, 7]: significant increase
- immobility time (open field) [1, 7]: reduction
- OARSI scores in medial tibial plateau and medial femoral condyle ([2]; DMM mice, i.p. twice at 30 minutes and four weeks post-surgery, 8 weeks after DMM, vs saline): significant reduction
- Summed OARSI score of MTP and MFC (structural integrity of the articular cartilage) ([2]; DMM mice, i.p. twice, 8 weeks after DMM, three-level sections): significantly improved structural integrity
- pathologic changes in the articular cartilage of sham-operated mice ([2]; mouse, in vivo, ip): did not exhibit pathologic changes
- OARSI scores in medial tibial plateau and medial femoral condyle ([2]; single i.p. injection at 30 minutes post-surgery, eight weeks after DMM): significant reduction
- proteoglycan loss and cartilage erosion (Safranin O/Fast Green) ([2]; single i.p. injection at 30 minutes post-surgery, eight weeks after DMM, vs saline): less proteoglycan loss and cartilage erosion
- bone mineral density (BMD) at the tibia subchondral bone [3]: significantly decreased
- bone volume fraction (BV/TV) at the tibia subchondral bone [3]: significantly decreased
- trabecular separation (Tb.Sp) at the tibia subchondral bone [3]: elevated
- trabecular thickness (Tb.Th) at the tibia subchondral bone [3]: significantly decreased
- degree of synovitis (synovitis score) ([4]; DMM mice, i.p. twice at 30 minutes and four weeks post-surgery, 8 weeks after DMM): marked reduction
- degree of synovitis (synovitis score) ([4]; delayed treatment: i.p. at 10, 25 and 40 days after DMM surgery, eight weeks after DMM): significant reduction
- IL-1β treatment induced HCs opening (ethidium bromide dye uptake) [5]: blocked
